The values that follow come from patent US20030220254A1, “Composition and method for preparation of an oral dual controlled release formulation of a protein and inhibitor” (TEXAS TECH UNIVERSITY SYSTEM, priority 2002, published 2003).

Where two headings read alike, the source gives them in different places.

Data set [1] has as its target T1, α-chymotrypsin (Bos taurus, UniProt P00766). The experiment in a line: α-chymotrypsin mediated degradation of insulin with inhibitors (HPLC). It is filed as biochemical. The protocol:
(§1) Stability studies in the presence of chicken and duck ovomucoid were conducted. […] The degradation profiles were generated in the presence of 0.1 μM α-chymotrypsin and 0.5 μM trypsin over a period of 60 minutes that served as controls. These concentrations were selected based on a reported study (Schilling & Mitra 1991).
Samples were taken at 0, 5, 15, 30 and 60 minutes and immediately diluted with cold 1% TFA/TRIS to reduce the pH to 2.5. The samples were analyzed at 4° C. by a reverse-phase HPLC method using a Varian Chromatography Workstation. […] Similar studies were performed with aprotinin.
The protocol used was the same as above with minor modifications. […] The degradation profiles were generated in the presence of α-chymotrypsin and DkOVM. The enzyme to inhibitor ratio used was 1:1 with respect to α-chymotrypsin.

The nature of a further data set: in vitro. To be noted: male, Sprague Dawley, rat, pH 7.4. The text has this:
(§2) Male Sprague Dawley rats weighing between 200-300 g were used for the permeability experiments. The intestine was excised and the jejunum was isolated by a reported method (Asada et al. 1995). Briefly, the duodenal and ileal segments were removed from top and bottom (13 cm on either side) and the residual intestine was designated as jejunum. The respective segments were mounted in a Navicyte Side-By-Side diffusion apparatus with accessories such as water circulator, flowmeter and humidifier.
(§3) The segments were mounted without stripping on a preheated acrylic half-cell and the cell assembly was then placed in a heated block after joining the other half-cell. The exposed surface area was 1.78 cm^2 and the reservoir volume was 6 mL. The donor and receiver compartments were immediately filled with pre-warmed oxygenated Krebs bicarbonate buffer adjusted to pH 7.4 with NaOH or HCl. The composition of buffer used is shown in Table 11, which illustrates the composition of stock solutions used for preparation of Krebs Bicarbonate solution. The stock solutions can be made in 100 mL or 1 L volume and stored in a refrigerator for one month. For preparation of working buffer, 50 mL of each stock solution above is added to a 1 L volumetric flask containing 750 mL of water. The pH was adjusted to 7.4 when necessary. […]
(§4) For the marker studies, the concentration of ^14C mannitol in donor compartment was 3.5×10^−5 μM and that of H testosterone was 4×10^−2 μM. The integrity of the tissues was determined by calculating the permeability coefficient (Papp) of mannitol. […] Aliquots of 10 μL were taken from the mucosal side at the beginning and end of the experiment and analyzed by a HPLC method discussed later. […] The radioactive samples were analyzed by using a liquid scintillation counter.
(§5) The results of experiments performed at least in triplicate are presented as mean±SE. Statistical differences between permeability in the presence of DkOVM and CkOVM and the means were determined by one-way analysis of variance (ANOVA). […]

For another data set, the system named is rat jejunum. The experiment in a line: in vitro.
Text: as §2, §3, §4, §5

The target of data set [2] is T2, trypsin (Bos taurus, UniProt P00760).
T2 construct: gene PRSS1
T2 sequence (P00760 24-246): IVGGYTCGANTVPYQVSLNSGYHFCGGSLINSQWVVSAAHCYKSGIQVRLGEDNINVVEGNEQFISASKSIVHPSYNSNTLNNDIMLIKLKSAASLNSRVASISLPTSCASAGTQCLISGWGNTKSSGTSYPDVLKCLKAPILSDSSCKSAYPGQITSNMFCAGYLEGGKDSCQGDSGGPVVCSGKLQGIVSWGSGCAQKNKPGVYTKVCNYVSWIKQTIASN
The data set can be described thus: trypsin mediated degradation of insulin with inhibitors (HPLC). It is filed as biochemical. Particulars: trypsin 0.5 μM. How it is done: as §1
Samples were taken at 0, 5, 15, 30 and 60 minutes and immediately diluted with cold 1% TFA/TRIS to reduce the pH to 2.5. The samples were analyzed at 4° C. by a reverse-phase HPLC method using a Varian Chromatography Workstation. Plots of insulin remaining versus time were generated. […] Similar studies were performed with aprotinin.

Data set [3] has as its target T2, trypsin. The data set can be described thus: Stability of sCT in the presence of trypsin and protease inhibitors. It is filed as biochemical. How it is done:
(§6) sCT solutions (50 μM) were incubated at 37° C. in 50 mM Tris buffer containing 0.1 mM calcium chloride (pH 8.0). Degradation profiles generated in the presence of 0.5 μM trypsin and 0.1 μM α-chymotrypsin served as controls. The concentrations were selected on the basis of a reported study (Schilling R. J. and Mitra A. K. 1991). DkOVM and TkOVM were evaluated at different enzyme-to-inhibitor ratios to evaluate their inhibition of sCT degradation. CkOVM and aprotinin were used at 1:1 enzyme-to-inhibitor ratio in order to compare the efficacy of various protease inhibitors used. sCT and enzyme solutions were incubated for 15 min at 37° C. before starting the experiments. Samples were taken after 0, 5, 15, 30 and 60 min and immediately diluted with cold 1% trifluoroacetic acid (TFA) to reduce the pH to 2.5. The samples were analysed at 4° C. by HPLC given below. Plots of sCT remaining against time were generated. […] (amount of sCT (%) remaining after 60 min) were used to compare the efficacy of the ovomucoids. Similar studies were performed with aprotinin. The study was also conducted by incubating 50 μM sCT solutions with 0.5 μM trypsin and 0.1 μM α-chymotrypsin added together and the efficacy of TkOVM was evaluated at various ratios.
(§7) sCT was analyzed by means of our validated HPLC method (Shah R B, et al., 2003). Briefly, a computer controlled Varian Chromatography workstation consisting of the following components was used: Two Dynamax SD-200 pumps, an AI-200A autosampler fitted with a 100 μl injection loop, a Dynamax UV-1 detector and Star 5.3 chromatography software. Room temperature was maintained for the column and chromatographic separations were carried out on a C-18 Vydac 218MS54 column (5 μm, 4.6×250 mm) with a pore size of 300 Å. 50 μl of samples were injected into the column which were analyzed by the reversed phase HPLC method. The mobile phase consisted of 0.05% v/v TFA-Water (A) and 0.05% v/v TFA-Acetonitrile (B). The gradient conditions were 20-35% B for 10 min, 35-37% B from 10th to 20th min and 37-20% B from 20th to 25th min at a flow rate of 1 ml/min. […] Concentrations of sCT were quantified from integrated peak areas and calculated by interpolation from an according standard curve.

Data set [4] deals with T1, α-chymotrypsin. The data set can be described thus: Stability of sCT in the presence of α-chymotrypsin and protease inhibitors. It is filed as biochemical. How it is done:
as §6, §7

A further data set deals with rat intestinal segments. The experiment in a line: Insulin transport across rat intestinal segments (side-by-side diffusion apparatus).
Text: as §2
The segments were mounted without stripping on a preheated acrylic half-cell and the cell assembly was then placed in a heated block after joining the other half-cell. The exposed surface area was 1.78 cm^2 and the reservoir volume was 6 mL. The donor and receiver compartments were immediately filled with pre-warmed oxygenated Krebs bicarbonate buffer adjusted to pH 7.4 with NaOH or HCl. The composition of buffer used is shown in Table 11, which illustrates the composition of stock solutions used for preparation of Krebs Bicarbonate solution. The stock solutions can be made in 100 mL or 1 L volume and stored in a refrigerator for one month. For preparation of working buffer, 50 mL of each stock solution above is added to a 1 L volumetric flask containing 750 mL of water. The pH was adjusted to 7.4 when necessary.
The mucosal buffer consisted of 40 mM mannitol and the serosal buffer consisted of 40 mM glucose. […] Mannitol equalizes the osmotic load between the mucosal and […] buffers and glucose helps to maintain tissue viability. The buffer was circulated by a gas lift (95%O2/5%CO2). The flow rate of gas lift was adjusted to 10±2 mL/min using a flow meter. The tissues were equilibrated for 10 min before the drug solution was added.
For the marker studies, the concentration of ^14C mannitol in donor compartment was 3.5×10^−5 μM and that of H testosterone was 4×10^−2 μM. The integrity of the tissues was determined by calculating the permeability coefficient (Papp) of mannitol. For α-chymotrypsin studies, the enzyme was added immediately after the addition of drug and inhibitor solution to achieve a final concentration of 0.5 μM. Samples (1 mL) were taken from the serosal side at various times up to 180 min and replaced with fresh transport medium. Aliquots of 10 μL were taken from the mucosal side at the beginning and end of the experiment and analyzed by a HPLC method discussed later. […] The radioactive samples were analyzed by using a liquid scintillation counter.
as §5

For data set [5], the target named is T1, α-chymotrypsin. The data set can be described thus: Insulin stability in Krebs bicarbonate buffer with α-chymotrypsin and DkOVM over 3 hours. To be noted: absence of DkOVM. It is filed as biochemical. How it is done:
The degradation profiles were generated in the presence of 0.5 μM α-chymotrypsin over a period of 3 hours that served as controls. […] Samples were taken up to 180 min and immediately diluted with cold 1% TFA/TRIS to reduce the pH to 2.5. The samples were analyzed by the RP-HPLC method reported earlier.

Data set [6] deals with rat GIT segments. To be noted: cited from earlier work; for Papp × 10^7 cm/sec of insulin: Rat, Everted gut sac.
Data set [7] has as its system rat GIT segments. Particulars: cited from earlier work; for Papp × 10^7 cm/sec of insulin: Rat, Ussing technique.
In another data set the test system is apical epithelium. Particulars: Stoll et al. 2000; cited from earlier work.
For data set [8] the following is noted: in vivo; cited from earlier work.
For data set [9] the following is noted: cited from earlier work.
The mark [10] stands for this setting: chymotrypsin 0.1 μM, enzyme:inhibitor 1:1.

On to `C[C@H](CCC(=O)NCC(=O)[O-])[C@H]1CC[C@H]2[C@@H]3[C@H](O)C[C@@H]4C[C@H](O)CC[C@]4(C)[C@H]3C[C@H](O)[C@]12C.[Na+]` [NaGC, sodium glycocholate], for which the “% I60 min (insulin remaining at 60 minutes)” value on α-chymotrypsin [1] (chymotrypsin + 30 mM NaGC, no inhibitor) is 4.66 ± 0.8%.

In the data set “in vitro”, `OC[C@@H](O)[C@@H](O)[C@H](O)[C@H](O)CO` [^14C Mannitol, D-[1-^14C] mannitol] registered a Papp at 180 min of 3.46 ± 0.251 ×10⁻⁶ cm/s. In addition, the “^14C Mannitol Permeability × 10^6 cm/sec” value with rat jejunum was 3.465 ± 0.251 × 10^6 cm/sec. Further, the “^14C Mannitol Ratio” value in the data set on rat jejunum (male, Sprague Dawley, rat, 180 min, pH 7.4) was 1.0.

With Aprotinin, the “% I60 min (insulin remaining at 60 minutes)” value on α-chymotrypsin [1] (setting [10]) turned out to be 69.65 ± 6.04%; on trypsin [2] (enzyme:inhibitor 1:1), 97.99 ± 0.08%. Further, the “Amount (%) of sCT remaining at 60 min (I60)” value on trypsin [3] (trypsin 0.5 μM, enzyme:inhibitor 1:1) amounted to 83.36 ± 8.92%; on α-chymotrypsin [4] (setting [10]), 35.87 ± 1.06%. Further, the “Ratio (half-life versus trypsin alone)” value at trypsin [3] (trypsin:inhibitor 1:1) was found to be 199.34. Besides, the “Ratio (half-life versus α-chymotrypsin alone)” value at α-chymotrypsin [4] (α-chymotrypsin:inhibitor 1:1) is listed as 1.82.

As for `O=C(O)CN(CCN(CC(=O)O)CC(=O)O)CC(=O)O` [EDTA], the “% I60 min (insulin remaining at 60 minutes)” value at α-chymotrypsin [1] (chymotrypsin + 0.5 mM EDTA, no inhibitor) is 0.32 ± 0.33%.

On to insulin, for which the “% I60 min (insulin remaining at 60 minutes)” value in the data set with α-chymotrypsin [1] (insulin 18 μM alone, no enzyme) came out at 100%; in the data set with trypsin [2] (no inhibitor) it was 68.79 ± 1.85%. Further, the “insulin degraded in 60 minutes” value in the data set with α-chymotrypsin [1] (α-chymotrypsin, control without inhibitor) is listed as “more than 90%”. Besides, in the data set on rat intestinal segments (jejunum), the “cumulative amount of insulin permeated at the end of three hours” value was 0.04±0.023 IU. For the same compound, the “Permeability of insulin (P × 10^7 cm/sec)” value is reported as 0.0 × 10^7 cm/sec in the data set with rat intestinal segments (rat jejunum, insulin 100 μM + α-chymotrypsin 0.5 μM + DkOVM 0.0 μM) and 0.922 ± 0.168 × 10^7 cm/sec in the data set with rat intestinal segments (rat jejunum, insulin 100 μM alone). Further, the Papp of insulin with rat intestinal segments (rat jejunum, insulin alone) was 0.922±0.168 ×10^−7 cm/sec. The “insulin (%) remaining at the end of 3 hours” value with α-chymotrypsin [5] is given as “negligible”. The “Papp × 10^7 cm/sec of insulin” value was 0.78 ± 0.54 × 10^7 cm/sec with rat GIT segments [6] (Duodenum); 1.54 ± 0.29 × 10^7 cm/sec in the data set with rat GIT segments [6] (Ileum); 1.385 ± 0.265 × 10^7 cm/sec with rat GIT segments [6] (Jejunum); 4.05 ± 1.09 × 10^7 cm/sec in the data set on rat GIT segments [7] (Colon); 4.85 ± 0.99 × 10^7 cm/sec in the data set with rat GIT segments [7] (Duodenum); 12.27 ± 1.73 × 10^7 cm/sec in the data set with rat GIT segments [7] (Jejunum). Moreover, the “reported Papp of insulin from rat jejunum” value is on record as 5±2 ×10^−7 cm/sec in the data set on rat GIT segments [6] (Schilling & Mitra 1990) and 12.27±1.73 ×10^−7 cm/sec in the data set with rat GIT segments [7] (Asada et al. 1995). The “apical epithelial permeability of insulin” value in the data set on apical epithelium is 0.032 ×10⁻⁶ cm/s. Also, the “insulin reaching the liver via the portal vein that undergoes degradation” value in [8] is on record as “About 50%”. In addition, the peak time was 5 to 60 min in data set [9] (pulmonary route) and 6 to 150 min in [9] (subcutaneous route).

Broadly, the Papp is a coefficient for how fast a substance crosses the barrier.
